Experimental data from paper PMC12521494.
“And” between values parts separate entries of the source, which are not always exact repeats. Identical values can stand only once.

Biological target: NbNRC2 (Nicotiana benthamiana)
Assay: native gel or EMSA

NbNRC2 (receptor) was tested, and the stoichiometry N was 2 and 4.
